Experimental data: article PMC10138680, “Identification and Functional Analysis of Tartrate-Resistant Acid Phosphatase Type 5b (TRAP5b) in Oreochromis niloticus” (International Journal of Molecular Sciences, 2023)

System: T1, O=[N+]([O-])c1ccc(OP(=O)(O)O)cc1
T1 construct: mature peptide of 302 residues (22-residue signal peptide removed; precursor 324 aa), N-terminal MBP tag (pMAL-c5X) kept, E. coli K12 TB1, amylose resin; forward primer F2 encodes MVEQGA
Assay: purified protein
Format: biochemical, Oreochromis niloticus
Conditions: substrate 5-25 mM, pH and temperature of the kinetic runs not stated (50 mM acetate; optimum pH 5.0, 50 °C; standard assay 37 °C)

Sequence of (r)OnTRAP5b (Oreochromis niloticus) (chain, as listed by the source): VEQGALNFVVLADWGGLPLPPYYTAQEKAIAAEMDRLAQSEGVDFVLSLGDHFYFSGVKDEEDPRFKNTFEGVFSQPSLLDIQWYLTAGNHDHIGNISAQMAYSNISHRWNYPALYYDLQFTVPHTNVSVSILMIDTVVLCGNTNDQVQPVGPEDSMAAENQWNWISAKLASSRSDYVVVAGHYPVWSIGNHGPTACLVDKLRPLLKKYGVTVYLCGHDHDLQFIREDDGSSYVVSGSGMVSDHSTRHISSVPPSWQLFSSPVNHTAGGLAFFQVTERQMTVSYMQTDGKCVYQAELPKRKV

Substance: (r)OnTRAP5b (Oreochromis niloticus)
- Km: 2112 µM
- kcat: 0.27 s⁻¹
